Values of other authors in publication PMC10979411.

Target: Nterm (UniProt position 44, ADPEAGIGAVL)
Experiment: NMR
Details: micelle-associated melittin

For “Melittin (Apis mellifera (inferred; organism not stated in the article))”, the pKa is listed as 7.15–8.15.
